B1: Chaperonin GroEL 2 (Mycobacterium tuberculosis (strain ATCC 25618 / P9WPE7 (parent)
chain: MAKTIAYDEEARRGLERGLNALADAVKVTLGPKGRNVVLEKKWGAPTITNDGVSIAKEIELEDPYEKIGAELVKEVAKKTDDVAGDGTTTATVLAQALVREGLRNVAAGANPLGLKRGIEKAVEKVTETLLKGAKEVETKEQIAATAAISAGDQSIGDLIAEAMDKVGNEGVITVEESNTFGLQLELTEGMRFDKGYISGYFVTDPERQEAVLEDPYILLVSSKVSTVKDLLPLLEKVIGAGKPLLIIAEDVEGEALSTLVVNKIRGTFKSVAVKAPGFGDRRKAMLQDMAILTGGQVISEEVGLTLENADLSLLGKARKVVVTKDETTIVEGAGDTDAIAGRVAQIRQEIENSDSDYDREKLQERLAKLAGGVAVIKAGAATEVELKERKHRIEDAVRNAKAAVEEGIVAGGGVTLLQAAPTLDELKLEGDEATGANIVKVALEAPLKQIAFNSGLEPGVVAEKVRNLPAGHGLNAQTGVYEDLLAAGVADPVKVTRSALQNAASIAGLFLTTEAVVADKPEKEKASVPGGGDMGGMDF
partner: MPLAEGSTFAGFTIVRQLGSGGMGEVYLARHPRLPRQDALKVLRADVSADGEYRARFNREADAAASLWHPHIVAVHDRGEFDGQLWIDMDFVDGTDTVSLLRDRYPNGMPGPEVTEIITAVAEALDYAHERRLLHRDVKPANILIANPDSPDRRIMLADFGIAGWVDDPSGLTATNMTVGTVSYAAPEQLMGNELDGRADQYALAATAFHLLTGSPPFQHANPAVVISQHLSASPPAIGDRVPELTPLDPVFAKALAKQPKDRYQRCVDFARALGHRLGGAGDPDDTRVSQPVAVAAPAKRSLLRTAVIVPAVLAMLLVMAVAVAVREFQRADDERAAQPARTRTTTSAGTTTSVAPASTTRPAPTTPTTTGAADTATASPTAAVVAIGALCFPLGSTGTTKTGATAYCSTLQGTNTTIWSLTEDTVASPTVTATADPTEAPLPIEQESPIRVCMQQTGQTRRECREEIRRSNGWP
B2: Alpha-crystallin (Mycobacterium tuberculosis (strain ATCC 25618 / P9WMK1 (parent)
chain: MATTLPVQRHPRSLFPEFSELFAAFPSFAGLRPTFDTRLMRLEDEMKEGRYEVRAELPGVDPDKDVDIMVRDGQLTIKAERTEQKDFDGRSEFAYGSFVRTVSLPVGADEDDIKATYDKGILTVSVAVSEGKPTEKHIQIRSTN
partner: B1 partner

Variants of: B1
Conditions: with pknf_myctu pknF

Variant | effect of a mutation on the interaction
T90A | decreasing interaction
T92A | decreasing interaction
T127A | decreasing interaction

Variants of: B2
Conditions: with pknf_myctu pknF

Variant | effect of a mutation on the interaction
S27A | decreasing interaction
T134A | decreasing interaction
T4A | decreasing interaction
S19A | decreasing interaction

Source: IntAct's records for PubMed 20925060
